Measured values: US20230287383A1, “PYRROLYSYL-tRNA SYNTHETASE VARIANTS AND USES THEREOF” (enGenes Biotech GmbH, priority 2020, published 2023)

Tests used:
eGFP Y40am [1] = experiment: SDS-PAGE analysis of eGFP Y40am expression in the presence of AzK; assay type: cell-based; settings: overnight induction, compared to eGFP wild type band
Description: FIG. 3: SDS-PAGE analysis of the expression of eGFP Y40am in the presence of AzK with the MaPyIRS M129L V168C/MatRNACUA^Pyl mutant o-pair in comparison to MmOP and MaOP corroborates the fluorescence analysis. eGFP expression was assessed after overnight induction, two expressions of eGFP Y40AzK with the mutant MaOP are shown. eGFP wild type was expressed from the same plasmid carrying the MmOP. Samples of corresponding cell density were analyzed. The calculated molecular weight of eGFP is 28 kDa. M, molecular weight marker.
To further validate the finding, the expression of the reporter protein eGFP by SDS-PAGE was analyzed (e.g., FIG. 3).

eGFP Y40am [2] = experiment: eGFP Y40am amber suppression reporter: ncAA incorporation by o-pairs, fluorescence normalized to cell density; assay type: cell-based
Description: The incorporation of BocK, AllocK and AzK by the MmPyIRS/MmtRNACUA^Pyl and MaPyIRS/MatRNACUA^Pyl o-pairs was compared. The ncAAs were supplemented in the medium at 5 mM. eGFP fluorescence (λex 488 nm; λem 508 nm) was assessed after 4 hours (white bars) and overnight (black bars) induction. Fluorescence units were correlated to cell density (F488;508/D600) and the average of eight technical replicates is shown; the error bars indicate the standard deviation.
The incorporation of AzK by the MmPyIRS/MmtRNACUA^Pyl and the MaPyIRS/MatRNACUA^Pyl wild type and mutant o-pairs was compared. The ncAA was supplemented in the medium at 5 mM. eGFP fluorescence (λex 485 nm; λem 530 nm) was assessed after overnight induction. eGFP wild type was expressed from the same plasmid carrying the MmOP. Fluorescence units were correlated to cell density (F485;530/D600) and the average of at least two technical replicates is shown; the error bars indicate the standard deviation.
FIG. 4: The MaPyIRS M129L V168C/MatRNACUA^Pyl mutant o-pair produces more target protein than MmOP with less or the same amount of AzK. MaOP LC, MaPyIRS M129L V168C/MatRNACUA^Pyl; MmOP, PyIRS and RNACUA^Pyl from M. mazel, both o-pairs were used in BL21(DE3) cells; UNINDUCED, eGFP Y40am expression was not induced; INDUCED, expression was induced with 1 mM IPTG. Different concentrations of AzK were provided in the medium either 2 hours before induction with IPTG, or in parallel with IPTG. eGFP fluorescence (λex 485 nm; λem 530 nm) was assessed after overnight induction and was normalized to cell density (D600). The average of at least 3 replicates is shown and the error bars indicate the standard deviation.
The MaPyIRS M129L+V168C mutant variant was generated, which contains the same amino acid residues in the amino acid binding pocket as the MmPyIRS. […] The efficiency of the incorporation of AzK into the reporter protein eGFP Y40am was assessed by recording the fluorescence intensity normalized to the corresponding cell density and was compared to the fluorescence of wild type eGFP expressed from the same plasmid.

B1: MmPyIRS/MmtRNACUA^Pyl: wildtype Methanosarcina mazei pyrrolysyl-tRNA synthetase/tRNA o-pair, the benchmark (protein, UniProt Q8PWY1 1-454, looked up)
Pyrrolysine--tRNA ligase: MDKKPLNTLISATGLWMSRTGTIHKIKHHEVSRSKIYIEMACGDHLVVNNSRSSRTARALRHHKYRKTCKRCRVSDEDLNKFLTKANEDQTSVKVKVVSAPTRTKKAMPKSVARAPKPLENTEAAQAQPSGSKFSPAIPVSTQESVSVPASVSTSISSISTGATASALVKGNTNPITSMSAPVQASAPALTKSQTDRLEVLLNPKDEISLNSGKPFRELESELLSRRKKDLQQIYAEERENYLGKLEREITRFFVDRGFLEIKSPILIPLEYIERMGIDNDTELSKQIFRVDKNFCLRPMLAPNLYNYLRKLDRALPDPIKIFEIGPCYRKESDGKEHLEEFTMLNFCQMGSGCTRENLESIITDFLNHLGIDFKIVGDSCMVYGDTLDVMHGDLELSSAVVGPIPLDREWGIDKPWIGAGFGLERLLKVKHDFKNIKRAARSESYYNGISTNL
modifications: with cognate tRNA Pyl
notes: wildtype Methanosarcina mazei pyrrolysyl-tRNA synthetase/tRNA o-pair, the benchmark
- eGFP expression band intensity in the presence of AzK (eGFP Y40am [1]): markedly less intense
- AllocK incorporation (eGFP Y40am [2]; AllocK 5 mM in medium, eGFP fluorescence correlated to cell density): efficient incorporation
- AzK incorporation efficiency (eGFP Y40am [2]; AzK 5 mM in medium, eGFP fluorescence correlated to cell density (D600)): very well incorporated
- BocK incorporation (eGFP Y40am [2]; BocK 5 mM in medium, eGFP fluorescence correlated to cell density): efficient incorporation
